# Measurements published in publication PMC8307404, “Crystal Structure-Guided Design of Bisubstrate Inhibitors and Photoluminescent Probes for Protein Kinases of the PIM Family” (Molecules, 2021).
# Read-outs that look alike come from different tables or passages of the source. Square brackets hold non-standard residues; d marks the D form. Peptide text beside a SMILES is read from it. * marks the point of attachment. X3 = O=C(CCCCCNCc1nc2c(sc3cc(Br)cnc32)c(=O)[nH]1)*
# Assays:
# DDR2 = target: T1, DDR2 (Homo sapiens, UniProt Q16832); assay: Kinase profiling (radiometric filter-binding); type: biochemical; details: DDR2, 1 µM inhibitor; read-out: Residual activity, %
# T1 sequence (Q16832 22-855): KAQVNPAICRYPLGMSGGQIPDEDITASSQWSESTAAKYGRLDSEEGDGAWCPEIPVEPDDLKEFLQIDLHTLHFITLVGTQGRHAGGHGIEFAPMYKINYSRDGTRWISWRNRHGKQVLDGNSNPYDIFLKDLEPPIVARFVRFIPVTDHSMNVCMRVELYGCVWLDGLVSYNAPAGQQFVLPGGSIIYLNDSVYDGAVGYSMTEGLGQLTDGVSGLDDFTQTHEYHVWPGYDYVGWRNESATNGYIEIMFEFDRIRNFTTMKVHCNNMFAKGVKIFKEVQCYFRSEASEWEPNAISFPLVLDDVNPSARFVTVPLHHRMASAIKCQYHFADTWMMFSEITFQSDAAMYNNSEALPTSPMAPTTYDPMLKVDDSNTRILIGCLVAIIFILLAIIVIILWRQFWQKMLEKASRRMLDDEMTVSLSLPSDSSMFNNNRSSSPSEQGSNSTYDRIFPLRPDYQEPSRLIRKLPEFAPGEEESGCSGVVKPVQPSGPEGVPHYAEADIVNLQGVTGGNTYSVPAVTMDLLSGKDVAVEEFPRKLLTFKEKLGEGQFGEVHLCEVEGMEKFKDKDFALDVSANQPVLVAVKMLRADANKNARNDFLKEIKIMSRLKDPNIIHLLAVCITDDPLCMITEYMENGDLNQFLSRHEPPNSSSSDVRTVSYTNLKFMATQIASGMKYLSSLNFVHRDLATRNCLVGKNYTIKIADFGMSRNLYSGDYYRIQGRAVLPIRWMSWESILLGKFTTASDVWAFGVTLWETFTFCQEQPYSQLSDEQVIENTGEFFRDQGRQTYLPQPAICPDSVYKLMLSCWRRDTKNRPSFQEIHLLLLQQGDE
# Method: (§1) Kinase selectivity profiling was performed using the commercial service provided by the MRC PPU International Centre for Kinase Profiling (Dundee, UK) using a radiometric filter-binding assay. Kinases used for analysis were of human origin. The ATP concentration applied for inhibition measurements was at or below the ATP KM value of the particular PK. ARC-3125 and ARC-3126 were screened against 139 PKs, whereas compounds 1, 2, and 8 were screened against 140 PKs. The final total concentration of inhibitors in the selectivity panel was 1 µM. Residual activities were expressed as the percentage of retained activity compared to the control without inhibitor.
# GSK3 = GSK3 (Homo sapiens, UniProt P49841); assay: Kinase profiling (radiometric filter-binding); type: biochemical; details: GSK3 (Greek letter lost), 1 µM inhibitor; read-out: Residual activity, %
# Method: as §1
# PDK1 = target: T2, PDK1 (Homo sapiens, UniProt O15530); assay: Kinase profiling (radiometric filter-binding); type: biochemical; details: PDK1, 1 µM inhibitor; read-out: Residual activity, %
# T2 sequence (O15530 1-556): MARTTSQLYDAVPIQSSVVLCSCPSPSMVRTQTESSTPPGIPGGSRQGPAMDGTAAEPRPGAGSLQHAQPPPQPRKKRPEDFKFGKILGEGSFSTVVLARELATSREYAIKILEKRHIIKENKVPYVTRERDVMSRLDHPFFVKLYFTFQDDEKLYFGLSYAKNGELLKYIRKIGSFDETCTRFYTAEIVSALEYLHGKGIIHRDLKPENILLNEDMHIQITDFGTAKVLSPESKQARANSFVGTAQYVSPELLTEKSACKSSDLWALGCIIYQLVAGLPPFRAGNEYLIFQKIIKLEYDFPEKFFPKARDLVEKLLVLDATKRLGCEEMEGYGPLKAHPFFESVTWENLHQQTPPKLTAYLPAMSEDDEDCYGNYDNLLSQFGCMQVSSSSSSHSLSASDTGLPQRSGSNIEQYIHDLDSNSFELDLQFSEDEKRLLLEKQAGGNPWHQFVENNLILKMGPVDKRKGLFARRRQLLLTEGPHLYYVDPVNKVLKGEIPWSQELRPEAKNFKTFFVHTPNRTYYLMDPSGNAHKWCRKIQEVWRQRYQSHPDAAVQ
# Method: as §1
# ROCK 2 = ROCK 2 (Homo sapiens, UniProt O75116); assay: Kinase profiling (radiometric filter-binding); type: biochemical; details: ROCK 2, 1 µM inhibitor; read-out: Residual activity, %
# Method: as §1
# S6K1 = S6K1 (Homo sapiens, UniProt P23443); assay: Kinase profiling (radiometric filter-binding); type: biochemical; details: S6K1, 1 µM inhibitor; read-out: Residual activity, %
# Method: as §1
# SYK = SYK (Homo sapiens, UniProt P43405); assay: Kinase profiling (radiometric filter-binding); type: biochemical; details: 1 µM inhibitor, read-out: Residual activity, %
# Method: as §1
# PKAcα = target: T3, PKAcα (Homo sapiens, UniProt P17612); assay: Binding/displacement assay with FA or TGLI readout
# T3 construct: purchased Biaffin GmbH & Co KG (Kassel, Germany)
# Method: The affinities of the compounds toward the PIM family PKs were determined in a binding/displacement assay with measurement of fluorescence anisotropy (FA) and time-gated luminescence intensity (TGLI) (Table 2). For the initial assessment of the selectivity of compounds, PKAcα was used as the reference basophilic kinase.
# Optical FA measurement modules for 5-TAMRA-labeled compounds (ex. 540(20) nm, em. 590(20) nm and 590(20) nm), for Cy5-labeled compounds (ex. 590(50) nm, em. 675(50) nm and 675(50) nm), and optical TGLI measurement modules for ARC-1451 (ex. 330(60) nm, em. 590(50) nm), for ARC-1188 (ex. 330(60) nm, em. 675(50) nm) were used for assays with PHERAstar microplate reader (BMG Labtech; Ortenberg, Germany). TGLI measurements were performed with a delay time of 50 μs and integration of the signal for 150 μs. In each measurement, emission from 200 flashes of excitation radiation was collected. The measurement solutions (20 µL volumes) were prepared in black 384-well low-binding surface microtiter plates (Corning #4514; Kennebunk, ME, USA) and incubated for 20 min at 30 °C before the measurements. The assay buffer contained HEPES hemisodium salt (pH 7.4, 50 mM), NaCl (150 mM), dithiothreitol (5 mM), bovine serum albumin (0.5 mg/mL), and Tween-20 (0.005%). GraphPad Prism v. 5.04 (GraphPad Software, Inc.) was used for data analysis with FA [32] or TGLI [33] readouts. Representative titration curves can be found in Supplementary Figure S7.
# PIM1 = PIM1 (Homo sapiens, UniProt P11309); assay: Binding/displacement assay with FA or TGLI readout; parameters: made in house; details: KD, nM (PIM-1), TGLI or FA readout; mean ± SEM, N = 2
# Method: (§2) The affinities of the compounds toward the PIM family PKs were determined in a binding/displacement assay with measurement of fluorescence anisotropy (FA) and time-gated luminescence intensity (TGLI) (Table 2). For the initial assessment of the selectivity of compounds, PKAcα was used as the reference basophilic kinase [10].
# (§3) Optical FA measurement modules for 5-TAMRA-labeled compounds (ex. 540(20) nm, em. 590(20) nm and 590(20) nm), for Cy5-labeled compounds (ex. 590(50) nm, em. 675(50) nm and 675(50) nm), and optical TGLI measurement modules for ARC-1451 (ex. 330(60) nm, em. 590(50) nm), for ARC-1188 (ex. 330(60) nm, em. 675(50) nm) were used for assays with PHERAstar microplate reader (BMG Labtech; Ortenberg, Germany). TGLI measurements were performed with a delay time of 50 μs and integration of the signal for 150 μs. In each measurement, emission from 200 flashes of excitation radiation was collected. The measurement solutions (20 µL volumes) were prepared in black 384-well low-binding surface microtiter plates (Corning #4514; Kennebunk, ME, USA) and incubated for 20 min at 30 °C before the measurements. The assay buffer contained HEPES hemisodium salt (pH 7.4, 50 mM), NaCl (150 mM), dithiothreitol (5 mM), bovine serum albumin (0.5 mg/mL), and Tween-20 (0.005%). […] 5.04 (GraphPad Software, Inc.) was used for data analysis with FA [32] or TGLI [33] readouts.
# PIM3 = PIM3 (Homo sapiens, UniProt Q86V86); assay: Binding/displacement assay with FA or TGLI readout; parameters: made in house; details: mean ± SEM, N = 2
# Method: as §2, §3
# [1] = TGLI or FA readout, mean ± SEM, N = 2, read-out: KD, nM (PKAcα)
# Sequence of ROCK 2 (O75116 whole entry): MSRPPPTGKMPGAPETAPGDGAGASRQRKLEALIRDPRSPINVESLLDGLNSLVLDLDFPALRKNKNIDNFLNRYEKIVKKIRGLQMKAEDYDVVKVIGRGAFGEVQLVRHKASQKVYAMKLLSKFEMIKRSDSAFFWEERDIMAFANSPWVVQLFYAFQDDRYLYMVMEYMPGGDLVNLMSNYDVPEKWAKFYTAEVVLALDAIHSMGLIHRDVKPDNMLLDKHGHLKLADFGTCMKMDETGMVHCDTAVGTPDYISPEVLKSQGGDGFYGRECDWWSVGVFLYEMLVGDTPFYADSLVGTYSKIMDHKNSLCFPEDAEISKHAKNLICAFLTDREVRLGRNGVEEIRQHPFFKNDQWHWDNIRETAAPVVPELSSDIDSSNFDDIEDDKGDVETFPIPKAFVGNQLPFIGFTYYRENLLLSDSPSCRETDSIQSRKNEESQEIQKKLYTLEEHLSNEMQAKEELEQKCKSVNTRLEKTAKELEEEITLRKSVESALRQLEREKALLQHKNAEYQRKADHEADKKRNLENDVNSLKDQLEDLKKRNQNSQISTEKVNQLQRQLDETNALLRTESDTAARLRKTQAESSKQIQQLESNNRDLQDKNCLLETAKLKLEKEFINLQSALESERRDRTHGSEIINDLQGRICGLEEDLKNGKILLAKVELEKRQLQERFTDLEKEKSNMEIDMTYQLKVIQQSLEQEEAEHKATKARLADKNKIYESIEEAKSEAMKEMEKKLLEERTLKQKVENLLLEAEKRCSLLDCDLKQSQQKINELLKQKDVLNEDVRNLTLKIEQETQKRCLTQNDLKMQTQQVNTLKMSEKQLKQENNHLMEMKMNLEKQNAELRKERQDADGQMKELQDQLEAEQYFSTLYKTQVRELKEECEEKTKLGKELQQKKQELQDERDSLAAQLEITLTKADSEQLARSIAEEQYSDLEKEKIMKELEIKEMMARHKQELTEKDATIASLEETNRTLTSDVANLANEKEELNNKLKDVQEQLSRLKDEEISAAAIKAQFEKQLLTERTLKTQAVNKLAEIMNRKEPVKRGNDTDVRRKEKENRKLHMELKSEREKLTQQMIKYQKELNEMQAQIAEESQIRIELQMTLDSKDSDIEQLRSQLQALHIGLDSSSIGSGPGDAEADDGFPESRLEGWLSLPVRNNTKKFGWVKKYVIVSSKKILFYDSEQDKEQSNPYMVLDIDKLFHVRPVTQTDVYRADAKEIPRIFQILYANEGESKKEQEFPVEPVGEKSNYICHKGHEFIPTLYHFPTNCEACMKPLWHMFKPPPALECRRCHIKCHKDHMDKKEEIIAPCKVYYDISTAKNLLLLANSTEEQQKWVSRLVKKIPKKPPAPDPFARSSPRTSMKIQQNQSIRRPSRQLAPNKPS
# Sequence of S6K1 (P23443 whole entry): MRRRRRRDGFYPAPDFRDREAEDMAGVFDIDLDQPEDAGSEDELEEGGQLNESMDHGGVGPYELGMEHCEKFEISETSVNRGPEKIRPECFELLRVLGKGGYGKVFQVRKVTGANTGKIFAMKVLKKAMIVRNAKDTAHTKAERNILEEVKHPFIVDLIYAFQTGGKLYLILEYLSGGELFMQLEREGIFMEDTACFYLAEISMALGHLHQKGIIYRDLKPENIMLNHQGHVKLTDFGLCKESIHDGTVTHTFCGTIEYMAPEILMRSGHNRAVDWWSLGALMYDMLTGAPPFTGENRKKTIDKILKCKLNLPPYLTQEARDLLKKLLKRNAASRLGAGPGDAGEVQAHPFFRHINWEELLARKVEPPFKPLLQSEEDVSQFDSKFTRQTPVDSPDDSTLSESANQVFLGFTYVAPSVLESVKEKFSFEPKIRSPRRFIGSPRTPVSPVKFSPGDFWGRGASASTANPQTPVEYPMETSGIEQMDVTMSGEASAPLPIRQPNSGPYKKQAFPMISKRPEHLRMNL
# Sequence of GSK3 (P49841 whole entry): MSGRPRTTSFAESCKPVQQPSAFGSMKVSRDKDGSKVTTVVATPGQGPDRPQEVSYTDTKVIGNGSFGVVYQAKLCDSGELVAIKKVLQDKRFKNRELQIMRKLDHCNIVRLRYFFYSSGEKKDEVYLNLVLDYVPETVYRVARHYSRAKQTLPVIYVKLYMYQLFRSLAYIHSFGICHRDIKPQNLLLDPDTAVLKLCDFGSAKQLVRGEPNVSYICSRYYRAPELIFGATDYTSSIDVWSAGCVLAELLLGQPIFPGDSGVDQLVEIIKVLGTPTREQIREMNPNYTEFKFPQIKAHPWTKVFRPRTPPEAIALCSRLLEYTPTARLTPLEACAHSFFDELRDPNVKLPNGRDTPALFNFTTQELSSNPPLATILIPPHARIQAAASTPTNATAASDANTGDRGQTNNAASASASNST
# Sequence of PIM1 (P11309 whole entry): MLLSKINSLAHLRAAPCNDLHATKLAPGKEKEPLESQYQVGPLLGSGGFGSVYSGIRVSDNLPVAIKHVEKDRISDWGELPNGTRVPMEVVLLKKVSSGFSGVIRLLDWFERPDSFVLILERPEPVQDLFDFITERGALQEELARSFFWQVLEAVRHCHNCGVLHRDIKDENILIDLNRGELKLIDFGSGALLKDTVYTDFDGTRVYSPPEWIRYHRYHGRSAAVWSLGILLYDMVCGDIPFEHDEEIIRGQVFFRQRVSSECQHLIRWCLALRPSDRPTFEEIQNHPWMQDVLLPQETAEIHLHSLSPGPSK
SMILES,remaining activity at 1 µM (DDR2) [%],remaining activity at 1 µM (GSK3) [%],remaining activity at 1 µM (PDK1) [%],remaining activity at 1 µM (ROCK 2) [%],remaining activity at 1 µM (S6K1) [%],remaining activity at 1 µM (SYK) [%],Kd (PKAcα; [1]) [nM],Kd (PKAcα; read-out: KD toward PKAcα) [nM],Kd (PIM1) [nM],Kd (PIM3) [nM]
"N=C(N)NCCC[C@@H](NC(=O)CCCCCNC(=O)Cn1cnc2c(I)c(I)c(I)c(I)c21)C(=O)N[C@H](CCCNC(=N)N)C(=O)N[C@H](CCCNC(=N)N)C(=O)N[C@H](CCCNC(=N)N)C(=O)N[C@H](CCCNC(=N)N)C(=O)N[C@H](CCCNC(=N)N)C(=O)N[C@H](CCCCN)C(N)=O [ARC-3125, TIBI-CH2-C(=O)-Ahx-(D-Arg)6-D-Lys-NH2]",84 ± 13,140 ± 13,123 ± 7,5 ± 1,13,94 ± 10,,,,
"N=C(N)NCCC[C@@H](NC(=O)CCCCCNCc1nc2c(sc3cc(Br)cnc32)c(=O)[nH]1)C(=O)N[C@H](CCCNC(=N)N)C(=O)N[C@H](CCCNC(=N)N)C(=O)N[C@H](CCCNC(=N)N)C(=O)N[C@H](CCCNC(=N)N)C(=O)N[C@H](CCCNC(=N)N)C(=O)N[C@H](CCCCN)C(N)=O [ARC-3126, BPTP-Ahx-(D-Arg)6-D-Lys-NH2] (X3-[dR][dR][dR][dR][dR][dR][dK]-NH2)",93 ± 3,80,111 ± 13,65 ± 17,75 ± 2,75 ± 20,> 18500,> 18000,1.8 ± 0.7,2 ± 0.5
"N=C(N)NCCC[C@@H](NC(=O)CNC(=O)[C@@H](CCCNC(=N)N)NC(=O)[C@@H](CCCNC(=N)N)NC(=O)CCCCCCCNCc1nc2c(sc3cc(Br)cnc32)c(=O)[nH]1)C(=O)N[C@H](CCCCN)C(N)=O [Compound 1, BPTP-Aoc-(D-Arg)2-Gly-D-Arg-D-Lys-NH2]",104 ± 22,110 ± 12,116 ± 3,114 ± 17,98 ± 2,133 ± 15,2250 ± 411,,11.4 ± 1,5.2 ± 1
"N=C(N)NCCC[C@@H](NC(=O)CNC(=O)[C@@H](CCCNC(=N)N)NC(=O)[C@@H](CCCNC(=N)N)NC(=O)CCCCCCCNCc1nc2c(sc3ccc(Br)cc32)c(=O)[nH]1)C(=O)N[C@H](CCCCN)C(N)=O [Compound 2, BBTP-Aoc-(D-Arg)2-Gly-D-Arg-D-Lys-NH2]",107 ± 7,75 ± 8,121 ± 7,61 ± 5,85 ± 1,123 ± 3,853 ± 28,,0.4 ± 0.1,2 ± 0.4
"N=C(N)NCCC[C@@H](NC(=O)CNC(=O)[C@@H](CCCNC(=N)N)NC(=O)[C@@H](CCCNC(=N)N)NC(=O)Cn1cc(CNCc2nc3c(sc4ccc(Br)cc43)c(=O)[nH]2)nn1)C(=O)N[C@H](CCCCN)C(N)=O [Compound 3, BBTP-Amt-(D-Arg)2-Gly-D-Arg-D-Lys-NH2]",112 ± 6,64 ± 8,118 ± 16,62 ± 5,55 ± 6,114 ± 2,1500 ± 266,,0.7 ± 0.2,7 ± 1
"CN(C)c1ccc2c(c1)Oc1cc(N(C)C)ccc1C21OC(=O)c2cc(C(=O)NCCCC[C@@H](NC(=O)[C@@H](CCCNC(=N)N)NC(=O)CNC(=O)[C@@H](CCCNC(=N)N)NC(=O)[C@@H](CCCNC(=N)N)NC(=O)CCCCc3cn(Cc4nc5c(sc6ccc(Br)cc65)c(=O)[nH]4)nn3)C(N)=O)ccc21 [Compound 8, BBTP-Tap-(D-Arg)2-Gly-D-Arg-[D-Lys(5-TAMRA)]-NH2]",,,,,,,> 1020,,20.5 ± 4,15.7 ± 3
